Experimental findings from patent US20100261218A1 are described below.

For data set [1], the target named is N. punctiforme ATCC29133 PKS aryl carrier protein (ArCP) from HetM of glycolipid synthesis (NpArCP).
Data set [2] has as its target Nostoc punctiforme NRPS peptidyl carrier protein (Nppcp), C-terminal NosA PCP of the putative nostopeptolide cluster.
Data set [3] concerns the target Bacillus brevis ATCC8185 NRPS peptidyl carrier protein involved in tyrocidine biosynthesis (TycPCP).
Data set [4] concerns the target N. punctiforme ATCC29133 PKS acyl carrier protein of nostopeptolide biosynthesis (NpACP).
In data set [5] the target is T1, Synechocystis sp. PCC6803 fatty acid synthesis acyl carrier protein (SACP), P20804.
T1 chain: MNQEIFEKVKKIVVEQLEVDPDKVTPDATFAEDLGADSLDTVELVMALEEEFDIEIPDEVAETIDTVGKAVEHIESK

B1: N. sp. heterocyst carrier protein synthase (NhcS), phosphopantetheinyl transferase from Nodularia spumigena NSOR10 (protein)
chain: MTALNHLWLPVPTNLTLLPNDVHIWRIHLDVPEAQQQNLLATLSGDELTRANRFHFQEHRQRFIAGRGILRSILGSYLGIEPQRVLFDYQERGKPILADSLAKSGLWFNLSHSQGLALCAVNYHNRIGIDLEYIRRMSDVEALAKRFFLPREYDVVRSLSDHQQQEIFFRYWTCKEAYLKATGEGLAQLEQVEVLLNPTEPAQLQTSESWSLFELRAAEDYFAAVVVEGSGCNLQCWQY
In the case of B1, the figures for the “pantetheinylation of the carrier protein (30 min in vitro assay, ESI-MS)” value in data set [1] and in data set [2] were “The conversion of the apo-ArCP (15.75 kDa) to the holo-ArCP (16.05 kDa) is seen” and “Nppcp was pantetheinylated”, respectively.

B2: Synechocystis sp. PCC6803 phosphopantetheinyl transferase (Sppt) (protein)
chain: MLPQPQIWLCPTDRPLIPGYQALLSSEEMARGERYQRPQDKQRFLTMRLALRILLARQLDCLPQQLQFTYGPQGKPELVDRERRSPWFNVAHSGNYGLIGLSTEGEIGVDLQIMLPKPHYLKLAKRFFAPQEVQQLESLEGEKRTKLFYQLWTAKEAFLKATGKGISGGLNQVIPDENLAKYQYLPDSGDTNHWRLSSQPLLADQGSNDNYWMAIAWCTNEVNQVESNYLPNIQPFQWPRNLDSLP
In the case of B2, the entries for the “phosphopantetheinylation of the carrier protein (30 min in vitro assay, ESI-MS)” value in data set [1] and in data set [4] were “Sppt was unable to phosphopantetheinylate the N. punctiforme ATCC29133 NpArCP as shown by mass spectrometry” and “Phosphopantetheinylated NpACP was not reproducibly detected after incubation with Sppt”, respectively. Also, the “percent of carrier protein phosphopantetheinylated (30 min in vitro assay, ESI-MS)” value in data set [3] is listed as “approximately 54% of the P. aeruginosa PAO1 NRPS TycPCP was phosphopantetheinylated by Sppt”. Besides, the “phosphopantetheinylation of the carrier protein (10 min in vitro assay, ESI-MS, +340 Da)” value in data set [5] is recorded as “After in vitro incubation with Sppt, SACP showed an increased abundance of phosphopantetheinylated carrier protein”.
